T1: Boi2 SH3 (BOI2_YEAST), P39969
T1 chain: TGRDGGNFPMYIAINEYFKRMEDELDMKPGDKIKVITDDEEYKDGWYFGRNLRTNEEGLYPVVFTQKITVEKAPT

T2: Yfr024 SH3 (LSB3_YEAST), P43603
T2 chain: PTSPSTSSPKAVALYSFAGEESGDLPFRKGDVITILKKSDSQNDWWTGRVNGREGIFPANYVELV

T3: Rvs167 SH3 (RV167_YEAST), P39743
T3 chain: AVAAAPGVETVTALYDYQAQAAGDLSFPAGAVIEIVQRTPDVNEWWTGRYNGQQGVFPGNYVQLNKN

T4: Myo5 SH3 (MYO5_YEAST), Q04439
T4 chain: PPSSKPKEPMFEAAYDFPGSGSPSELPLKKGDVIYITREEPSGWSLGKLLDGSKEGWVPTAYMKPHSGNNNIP

T5: Yhr016c SH3 (YSC84_YEAST), P32793
T5 chain: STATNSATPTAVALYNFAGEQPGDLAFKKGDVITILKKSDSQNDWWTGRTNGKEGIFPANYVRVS

T6: Boi1 SH3 (BOI1_YEAST), P38041
T6 chain: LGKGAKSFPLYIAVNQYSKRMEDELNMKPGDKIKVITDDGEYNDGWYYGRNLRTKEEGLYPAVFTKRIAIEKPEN

B1: YML127W 362-375 (peptide)
chain: RLIKRLKPPAPKEP
B2: YMR109W 1006-1019 (peptide)
chain: RHSKKPAPPPPGMQ
B3: YMR031W-A 89-102 (peptide)
chain: RFSSRRAPIAPSGK
B4: YLR072W 370-383 (peptide)
chain: RPVYRLKPNAPFQY
B5: YOR347C 411-424 (peptide)
chain: RLLSKYRPSSPIIL
B6: YBL016W 257-270 (peptide)
chain: REYIKSLPMYPAAP
B7: YAL038W 409-422 (peptide)
chain: RLVSKYRPNSPIIL
B8: YNL165W 14-27 (peptide)
chain: RRHNRQHPPYPHSG
B9: YJL117W 12-25 (peptide)
chain: RKSDKNAPSVPQVD
B10: YGL143C 139-152 (peptide)
chain: RLVNKLLPPHPFAD
B11: YGR255C 239-252 (peptide)
chain: RGWQRFLPTGPIAH
B12: YDR474C 379-392 (peptide)
chain: RIRDKSKPSSPTAT
B13: YCR022C 77-90 (peptide)
chain: RLLFRSLPPHPASL
B14: YGR056W 183-196 (peptide)
chain: RMQQKNSPAFPTHS
B15: YNL317W 375-388 (peptide)
chain: RFWTRARPIDPNAY
B16: YML050W 46-59 (peptide)
chain: RLPSKTDPLDPHIK

Target: T1, Boi2 SH3 (BOI2_YEAST), P39969
Assay: SPOT array

Row | Binder | normalised SPOT signal, Boehringer light units (BLU); mean over the file's lines of this peptide
1 | B1 | 40.3
2 | B2 | 22.2
3 | B3 | 54.1
4 | B4 | 78.2
5 | B5 | 50.1
6 | B6 | 83.3
7 | B7 | 74
8 | B8 | 16
9 | B9 | -0
10 | B10 | 28.5
11 | B11 | 120
12 | B12 | 3.1
13 | B13 | 67.2
14 | B14 | 227
15 | B15 | 1230
16 | B16 | 28

Target: T2, Yfr024 SH3 (LSB3_YEAST), P43603
Assay: SPOT array

Row | Binder | normalised SPOT signal, Boehringer light units (BLU); mean over the file's lines of this peptide
17 | B1 | 296
18 | B2 | 304
19 | B3 | 2420
20 | B4 | 583
21 | B5 | 519
22 | B6 | 102
23 | B7 | 565
24 | B8 | 667
25 | B9 | 13.7
26 | B10 | 187
27 | B11 | 2080
28 | B12 | 592
29 | B13 | 3510
30 | B14 | 4550
31 | B15 | 4260
32 | B16 | 66.3

Target: T3, Rvs167 SH3 (RV167_YEAST), P39743
Assay: SPOT array

Row | Binder | normalised SPOT signal, Boehringer light units (BLU); mean over the file's lines of this peptide
33 | B1 | 133
34 | B2 | 56.3
35 | B3 | 774
36 | B4 | 148
37 | B5 | 1120
38 | B6 | 101
39 | B7 | 233
40 | B8 | 51.8
41 | B9 | 40.6
42 | B10 | 144
43 | B11 | 562
44 | B12 | 55.6
45 | B13 | 587
46 | B14 | 1150
47 | B15 | 1610
48 | B16 | 110

Target: T4, Myo5 SH3 (MYO5_YEAST), Q04439
Assay: SPOT array

Row | Binder | normalised SPOT signal, Boehringer light units (BLU); mean over the file's lines of this peptide
49 | B1 | 403
50 | B2 | 1940
51 | B3 | 564
52 | B4 | 210
53 | B5 | 337
54 | B6 | 70.4
55 | B7 | 286
56 | B8 | 1290
57 | B9 | 395
58 | B10 | 289
59 | B11 | 802
60 | B12 | 547
61 | B13 | 746
62 | B14 | 1280
63 | B15 | 279
64 | B16 | 129

target: Sho1 SH3 (SHO1_YEAST), P40073; assay: SPOT array
Sequence (P40073 295-366): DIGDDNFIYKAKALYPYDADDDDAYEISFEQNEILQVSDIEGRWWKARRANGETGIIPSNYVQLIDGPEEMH

Row | Binder | normalised SPOT signal, Boehringer light units (BLU); mean over the file's lines of this peptide
65 | B1 | 166
66 | B2 | 175
67 | B3 | 124
68 | B4 | 60.1
69 | B5 | 41.8
70 | B6 | 5160
71 | B7 | 42.5
72 | B8 | 65.3
73 | B9 | 89.7
74 | B10 | 20300
75 | B11 | 479
76 | B12 | 169
77 | B13 | 571
78 | B14 | 1220
79 | B15 | 177
80 | B16 | 47.9

Target: T5, Yhr016c SH3 (YSC84_YEAST), P32793
Assay: SPOT array

Row | Binder | normalised SPOT signal, Boehringer light units (BLU); mean over the file's lines of this peptide
81 | B1 | 65.9
82 | B2 | 17.7
83 | B3 | 184
84 | B4 | 129
85 | B5 | 245
86 | B6 | 48
87 | B7 | 108
88 | B8 | 43.4
89 | B9 | 50.6
90 | B10 | 24.8
91 | B11 | 597
92 | B12 | 46.3
93 | B13 | 1600
94 | B14 | 1510
95 | B15 | 970
96 | B16 | 29.3

Target: T6, Boi1 SH3 (BOI1_YEAST), P38041
Assay: SPOT array

Row | Binder | normalised SPOT signal, Boehringer light units (BLU); mean over the file's lines of this peptide
97 | B1 | 375
98 | B2 | 341
99 | B3 | 2030
100 | B4 | 72
101 | B5 | 718
102 | B6 | 150
103 | B7 | 246
104 | B8 | 299
105 | B9 | 1390
106 | B10 | 440
107 | B11 | 95.9
108 | B12 | 1510
109 | B13 | 465
110 | B14 | 4830
111 | B15 | 487
112 | B16 | 326

Reference: paper PMC314469, “Protein Interaction Networks by Proteome Peptide Scanning” (PLoS Biology, 2004)
